Residue numbers refer to the chain shown, from its start. Names may count otherwise.
B1: XPA23 light chain W32Y (Fab, V domains shown)
VH: EVQLLESGGGLVQPGGSLRLSCAASGFTFSKYFMFWVRQAPGKGLEWVSVISPSGGMTRYADSVKGRFTISRDNSKNTLYLQMNSLRAEDTAVYYCARVGYGGNSDYWGQGTLVTVSS
VL: DIQMTQSPSSVSASVGDRLTIICRASQDINRYLAWYQQTPGNAPKLLIHSATSLQSGVPSRFSGSGSGTDFTLTINSLQPEDFATYYCQQADSFPLTFGGGTKVEIK
B2: XPA23 light chain W32S (Fab, V domains shown)
VH: B1 VH
VL: B1 VL with Y32S
B3: XPA23 light chain W32T (Fab, V domains shown)
VH: B1 VH
VL: B1 VL with Y32T
B4: XPA23 light chain W32R (Fab, V domains shown)
VH: B1 VH
VL: B1 VL with Y32R
B5: XPA23 light chain W32V (Fab, V domains shown)
VH: B1 VH
VL: B1 VL with Y32V
B6: XPA23 heavy chain D106G (Fab, V domains shown)
VH: B1 VH with D106G
VL: B1 VL with Y32W
notes: Fab, periplasmic extract; also called C5A D106G
B7: XPA23 heavy chain F33I (Fab, V domains shown)
VH: B1 VH with F33I
VL: B1 VL with Y32W
notes: Fab, periplasmic extract; also called C5A F33I
B8: XPA23 heavy chain G56T (Fab, V domains shown)
VH: B1 VH with G56T
VL: B1 VL with Y32W
notes: Fab, periplasmic extract; also called C5A G56T
B9: XPA23 heavy chain F35I (Fab, V domains shown)
VH: B1 VH with F35I
VL: B1 VL with Y32W
notes: Fab, periplasmic extract; also called C5A F35I
B10: XPA23 heavy chain F33A (Fab, V domains shown)
VH: B1 VH with F33A
VL: B1 VL with Y32W
notes: Fab, periplasmic extract; also called C5A F33A
B11: XPA23 heavy chain F33L (Fab, V domains shown)
VH: B1 VH with F33L
VL: B1 VL with Y32W
notes: Fab, periplasmic extract; also called C5A F33L
B12: XPA23 heavy chain F33V (Fab, V domains shown)
VH: B1 VH with F33V
VL: B1 VL with Y32W
notes: Fab, periplasmic extract; also called C5A F33V
B13: XPA23 heavy chain G56L (Fab, V domains shown)
VH: B1 VH with G56L
VL: B1 VL with Y32W
notes: Fab, periplasmic extract; also called C5A G56L
B14: XPA23 heavy chain G55L (Fab, V domains shown)
VH: B1 VH with G55L
VL: B1 VL with Y32W
notes: Fab, periplasmic extract; also called C5A G55L
B15: XPA23 heavy chain G56P (Fab, V domains shown)
VH: B1 VH with G56P
VL: B1 VL with Y32W
notes: Fab, periplasmic extract; also called C5A G56P
B16: XPA23 heavy chain F35V (Fab, V domains shown)
VH: B1 VH with F35V
VL: B1 VL with Y32W
notes: Fab, periplasmic extract; also called C5A F35V
B17: XPA23 heavy chain G103A (Fab, V domains shown)
VH: B1 VH with G103A
VL: B1 VL with Y32W
notes: Fab, periplasmic extract; also called C5A G103A
B18: XPA23 heavy chain F33G (Fab, V domains shown)
VH: B1 VH with F33G
VL: B1 VL with Y32W
notes: Fab, periplasmic extract; also called C5A F33G
B19: XPA23 heavy chain F33P (Fab, V domains shown)
VH: B1 VH with F33P
VL: B1 VL with Y32W
notes: Fab, periplasmic extract; also called C5A F33P
B20: XPA23 heavy chain G55I (Fab, V domains shown)
VH: B1 VH with G55I
VL: B1 VL with Y32W
notes: Fab, periplasmic extract; also called C5A G55I
B21: XPA23 heavy chain G56A (Fab, V domains shown)
VH: B1 VH with G56A
VL: B1 VL with Y32W
notes: Fab, periplasmic extract; also called C5A G56A
B22: XPA23 heavy chain F35P (Fab, V domains shown)
VH: B1 VH with F35P
VL: B1 VL with Y32W
notes: Fab, periplasmic extract; also called C5A F35P
B23: XPA23 heavy chain G56I (Fab, V domains shown)
VH: B1 VH with G56I
VL: B1 VL with Y32W
notes: Fab, periplasmic extract; also called C5A G56I
B24: XPA23 heavy chain F35L (Fab, V domains shown)
VH: B1 VH with F35L
VL: B1 VL with Y32W
notes: Fab, periplasmic extract; also called C5A F35L
B25: XPA23 heavy chain F33T (Fab, V domains shown)
VH: B1 VH with F33T
VL: B1 VL with Y32W
notes: Fab, periplasmic extract; also called C5A F33T
B26: XPA23 heavy chain G100T (Fab, V domains shown)
VH: B1 VH with G100T
VL: B1 VL with Y32W
notes: Fab, periplasmic extract; also called C5A G100T
B27: XPA23 heavy chain F35A (Fab, V domains shown)
VH: B1 VH with F35A
VL: B1 VL with Y32W
notes: Fab, periplasmic extract; also called C5A F35A
B28: XPA23 heavy chain G103V (Fab, V domains shown)
VH: B1 VH with G103V
VL: B1 VL with Y32W
notes: Fab, periplasmic extract; also called C5A G103V
B29: XPA23 heavy chain I51G (Fab, V domains shown)
VH: B1 VH with I51G
VL: B1 VL with Y32W
notes: Fab, periplasmic extract; also called C5A I51G
B30: XPA23 heavy chain F35T (Fab, V domains shown)
VH: B1 VH with F35T
VL: B1 VL with Y32W
notes: Fab, periplasmic extract; also called C5A F35T
B31: XPA23 heavy chain I51A (Fab, V domains shown)
VH: B1 VH with I51A
VL: B1 VL with Y32W
notes: Fab, periplasmic extract; also called C5A I51A
B32: XPA23 heavy chain F35G (Fab, V domains shown)
VH: B1 VH with F35G
VL: B1 VL with Y32W
notes: Fab, periplasmic extract; also called C5A F35G

What follows are binders tested against T1, IL-1β (UniProt P01584 117-269) (assay: Biacore, periplasmic extract).
T1 construct: Antigen immobilised on the Biacore chip

binding result	Binder
no binding	B1
no binding	B2
no binding	B3
no binding	B4
no binding	B5

These binders were tested against T2, IL-1β (UniProt P01584 117-269) (assay: Biacore, Fab periplasmic extract).
T2 construct: Antigen of XPA23

fold difference in affinity against the original [fold]	Binder
0.03	B6
0.75	B7
1.11	B8
0.85	B9
0.75	B10
0.88	B11
0.76	B12
1.41	B13
0.08	B14
0.85	B15
0.89	B16
0.03	B17
0.76	B18
0.91	B19
0.86	B20
1.21	B21
0.06	B22
1.71	B23
0.78	B24
0.78	B25
0.12	B26
0.07	B27
2.56	B28
0.94	B29
0.74	B30
1.04	B31
0.04	B32
